# Source: paper PMC9082959, “Mechanism of Assembly of the Non-Covalent Spectrin Tetramerization Domain from Intrinsically Disordered Partners” (Journal of molecular biology, 2013)
# Changes are numbered by the printed parent chain.
# T1: β16β17 A18G (human, UniProt P11277 1898-2083, A2021G)
# T1 construct: erythrocyte β-spectrin, human, residues 1898-2083 (β16β17); mutant of m2; also called A2021G; source: E. coli C41(DE3), purified (Ni2+ agarose, thrombin cleavage, gel filtration)
# T1 sequence (looked up): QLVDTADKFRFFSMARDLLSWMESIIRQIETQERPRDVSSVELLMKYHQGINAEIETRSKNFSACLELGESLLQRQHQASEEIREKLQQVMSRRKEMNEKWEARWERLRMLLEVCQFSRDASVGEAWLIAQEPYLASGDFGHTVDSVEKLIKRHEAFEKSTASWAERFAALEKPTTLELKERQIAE
# T2: β16β17 L22A (human, UniProt P11277 1898-2083, L2025A)
# T2 construct: erythrocyte β-spectrin, human, residues 1898-2083 (β16β17); mutant of m2; also called L2025A; source: E. coli C41(DE3), purified (Ni2+ agarose, thrombin cleavage, gel filtration)
# T2 sequence (looked up): T1 sequence (looked up) with G124A, L128A
# T3: β16β17 (erythrocyte β-spectrin residues 1898–2083), wild type (human, UniProt P11277 1898-2083)
# T3 construct: erythrocyte β-spectrin, human, residues 1898-2083 (β16 plus the incomplete 17th domain); synthetic gene (GenScript) in a modified pRSETA plasmid; source: E. coli C41(DE3), purified (Ni2+ agarose, thrombin cleavage, gel filtration)
# T3 sequence (looked up): T1 sequence (looked up) with G124A
# T4: β16β17 F11A (human, UniProt P11277 1898-2083, F2014A)
# T4 construct: erythrocyte β-spectrin, human, residues 1898-2083 (β16β17); mutant of m2; also called F2014A; source: E. coli C41(DE3), purified (Ni2+ agarose, thrombin cleavage, gel filtration)
# T4 sequence (looked up): T1 sequence (looked up) with F117A, G124A
# T5: β16β17 A15G (human, UniProt P11277 1898-2083, A2018G)
# T5 construct: erythrocyte β-spectrin, human, residues 1898-2083 (β16β17); mutant of m2; also called A2018G; source: E. coli C41(DE3), purified (Ni2+ agarose, thrombin cleavage, gel filtration)
# T5 sequence (looked up): T1 sequence (looked up) with A121G, G124A
# T6: β16β17 E19A (human, UniProt P11277 1898-2083, E2022A)
# T6 construct: erythrocyte β-spectrin, human, residues 1898-2083 (β16β17); mutant of m2; also called E2022A; source: E. coli C41(DE3), purified (Ni2+ agarose, thrombin cleavage, gel filtration)
# T6 sequence (looked up): T1 sequence (looked up) with G124A, E125A
# B1: α0α1 (erythrocyte α-spectrin residues 2–163), wild type (domain or fragment, human, UniProt P02549 2-163, looked up)
# chain: EQFPKETVVESSGPKVLETAEEIQERRQEVLTRYQSFKERVAERGQKLEDSYHLQVFKRDADDLGKWIMEKVNILTDKSYEDPTNIQGKYQKHQSLEAEVQTKSRLMSELEKTREERFTMGHSAHEETKAHIEELRHLWDLLLELTLEKGDQLLRALKFQQY
# notes: synthetic gene (GenScript) in a modified pRSETA plasmid; also called α1α0; source: E. coli C41(DE3), purified (Ni2+ agarose, thrombin cleavage, gel filtration)
# Tests used:
# Test in all cases: ITC; β16β17 at 25–50 μM in the cell titrated with 15–20 injections to 2–2.5 eq of α0α1; one-site binding model; PBS (50 mM sodium phosphate, 150 mM NaCl, pH 7.04), 25 °C; mutants only against the wild-type partner
# Conditions in all cases: both partners purified
# β16β17 A18G = biological target: T1, β16β17 A18G
# β16β17 L22A = biological target: T2, β16β17 L22A
# [1] = biological target: T3, β16β17 (erythrocyte β-spectrin residues …)
# β16β17 F11A = biological target: T4, β16β17 F11A
# β16β17 A15G = biological target: T5, β16β17 A15G
# β16β17 E19A = biological target: T6, β16β17 E19A
# [2] = biological target: T3, β16β17 (erythrocyte β-spectrin residues …); remark: listed apart in the source
binder,measurement,setting,value
B1,Ka,β16β17 A18G,130000 M⁻¹
same,Ka,β16β17 L22A,6000 M⁻¹
same,Ka,[1],2.07e+06 M⁻¹
same,Ka,β16β17 F11A,6000 M⁻¹
same,Ka,β16β17 A15G,6000 M⁻¹
same,Ka,β16β17 E19A,93000 M⁻¹
same,Kd,[2],400 nM
